This note sets out measurements from article PMC10666276 (Biochemistry, 2023).

The test system of data set [1] is NC(=O)c1ccc[n+]([C@@H]2O[C@H](COP(=O)(O)OP(=O)(O)OC[C@H]3O[C@@H](n4cnc5c4ncn4ccnc54)[C@H](O)[C@@H]3O)[C@@H](O)[C@H]2O)c1. Description: purified protein. As to conditions: 50 mM sodium acetate pH 5.5, 150 mM NaCl, 500 μM CaCl2, 25 °C, 10 ng enzyme.
Source text: fluorometric hydrolysis assay, Michaelis-Menten fit on AfNADase
For data set [2], the target named is AfNADase^D219A/E220A (Aspergillus fumigatus) (UniProt Q4WL81). In words: crystal structure.
The data set “SEC” deals with the molecule itself. Description: SEC.

Consider AfNADase (Aspergillus fumigatus Af293), for which, in data set [1], the Michaelis-Menten constant (Km) worked out at 54.8 ± 15.3 µM and the maximal velocity (Vmax) was determined as 4570 µmol/min/mg.

In turn, “AfNADase^D219A/E220A (from UniProt Q4WL81) (enzyme)” registered a stoichiometry N in data set [2] of 2.

B1: Aspergillus fumigatus NADase (AfNADase), wild type (enzyme)
chain: LQHTEDSLFPARCWPDPCAGITFQNDTYVCGDPRLGPVVLPQKFPLNNELRTYARFGALCPAEFLDKWATDVAPNGTYIYPPANGFALDTEEQPILGNATLPVGMKLDRFGSEYGTFLAPLGAPYIERSLPPSNLNTFDGMYPYNYHVYQVTKEFVVGLGPIAPWFEQPGMGTQFVTYTNVLGLIDDGYLRRLDESEYDEKVEYSNPYTPGPNQ
modifications: N-linked glycosylation sites (as observed in the wild-type structure 6YGE)
Consider B1, for which, in the data set “SEC”, the binding result is given as “binds”.

Broadly, the Km is the concentration of substrate that gives half-maximal velocity. By Vmax is commonly meant the rate approached at saturating substrate. Usually stoichiometry N stands for a count of units in the complex or per binding partner.
